Laboratory results: patent US5674833

target: Alcalase® (Bacillus) (UniProt P00780); assay: titration of Alcalase with inhibitor, residual activity on synthetic peptide substrates, non-linear regression; 0.1M Tris-HCl pH 8.6, 25 C

In order of rising Kd:
1. Wild-type barley subtilisin inhibitor CI-2  0.004 nM
2. CI-2(V57E)  0.1 nM
3. CI-2(M59P)  5 nM
